# Substitutions are numbered along the chain they refer to. Names and notes keep the numbering of the source.
# B1: SEQ ID NO: 42: RdpA mutant L82H + V187L + F182W + G103L (protein)
# chain: MHAALSPLSQRFERIAVQPLTGVLGAEITGVDLREPLDDSTWNEILDAFHTYQVIYFPGQAITNEQHIAFSRRFGPVDPVPHLKSIEGYPEVQMIRREANESLRVIGDDWHTDSTFLDAPPAAVVMRAIDVPEHGGDTGFLSMYTAWETLSPTMQATIEGLNVVHSATRVFGSLYQAQNRRWSNTSLKVMDVDAGDRETVHPLVVTHPGSGRKGLYVNQVYCQRIEGMTDAESKPLLQFLYEHATRFDFTCRVRWKKDQVLVWDNLCTMHRAVPDYAGKFRYLTRTTVGGVRPAR
# B2: SEQ ID NO: 46: RdpA mutant L82H + V187L + F182W + R104G + T112S (protein)
# chain: B1 chain with L103G, R104G, T112S
# Legend:
# [1] = Conversion rate of substrate compound A by E. coli expressing each engineered protein (HPLC, oxygenase activity); assay type: biochemical; conditions: Reaction condition 1: bacteria cultured overnight, substrate compound A and IPTG added to react overnight
# [2] = Enzymatic kinetic measurements of purified proteins with compound A as substrate; assay type: biochemical; conditions: purified protein, compound A 0-1000 μM as substrate
# Procedure: Based on the results of HPLC, representative engineered proteins were selected for protein purification. Further protein characterization, such as Km, Vmax and Kcat, was performed on the 8 engineered proteins from Table 2. Conventional Ni column affinity chromatography was used for protein purification and protein extract purity was assessed by SDS-PAGE analysis. After determining protein concentration by BCA method, enzyme activity was determined.
# [3] = system: rice (Jinjing 818); assay: Transgenic rice seedlings, compound B added to medium at rooting phase; assay type: in vivo; conditions: at least 1 μM compound B in medium (0.5 and 1 μM for SEQ ID NO: 42), 17-26 days
# Procedure: Plant transformation vectors were constructed, each comprising a recombinant DNA molecule encoding an engineered protein (SEQ ID NO: 42/38/82/86/102/106/126/138/142) with the protein-coding sequence optimized for monocot expression, and rice (Jinjing 818) calli were transformed with these vectors using Agrobacterium tumifaciens and standard methods known in the art. Different concentrations of hormone herbicide compound B were added at the rooting phase of the rice seedlings to test hormone resistance, wherein, the test results of control Jinjing 818 plants and transgenic Jinjing 818 plants comprising the protein-coding gene of SEQ ID NO: 42 after adding 0.5 μM and 1 μM compound B to medium for 19 days are shown in FIG. 1. The test results of control Jinjing 818 plants and transgenic Jinjing 818 plants comprising the protein-coding genes of SEQ ID NO: 38/82/86/102/106/126/138/142 after adding 1 μM compound B to medium are shown in FIG. 5-11.
# [4] = system: rice (Jinjing 818); assay: Transgenic rice T0 plantlets in greenhouse sprayed with compound B; assay type: in vivo
# Procedure: (§1) Then, the obtained regenerated TO generation transgenic plantlets grew in the greenhouse, and were sprayed with compound B at the growth stage when approximately two leaves unfolded and the third one just appearing. Resistance levels of plants were recorded and evaluated after spraying treatment, wherein, the test results of control Jinjing 818 plants and transgenic Jinjing 818 plants comprising the protein-coding gene of SEQ ID NO: 42 after applying 20 g, 40 g, 60 g, 80 g, 100 g, 120 g/mu (1 mu=1/15 ha) compound B for corresponding days (DAT) are shown in FIG. 2.
# [5] = system: Arabidopsis thaliana; assay: T2 transgenic Arabidopsis thaliana seeds screened on compound A medium; assay type: in vivo; conditions: 0.15 μM compound A in medium, 11-24 days
# Text: Engineered proteins were selected for Arabidopsis thaliana transformation and plant analysis. DNA constructs were transformed into Arabidopsis thaliana using Agrobacterium tumifaciens and standard methods known in the art.
# The transformed TO transgenic plantlets grew in the greenhouse. T1 generation Arabidopsis thaliana plant seeds produced by transformation of all constructs were collected after approximately 60 days of growth. Transgenic T1 generation Arabidopsis thaliana plants were screened by adding HYG to medium for T1 generation. T1 plants were selfed to produce seeds of T2 generation Arabidopsis thaliana plants. Wherein, compound A was added to medium to screen and test T2 generation Arabidopsis thaliana plant seeds, that were produced by all constructs, comprising unique events screened by T1 generation.
# [6] = system: Arabidopsis thaliana; assay: T2 transgenic Arabidopsis thaliana plants foliage-sprayed with compound B; assay type: in vivo; conditions: foliage-sprayed with 40 g/mu compound B, 12 days
# Text: In addition, compound B was sprayed to test T2 generation Arabidopsis thaliana plants, that were produced by some of the constructs, comprising unique events screened by T1 generation, wherein, the test results of the wild-type Arabidopsis thaliana control plants transformed with RdpA gene and Arabidopsis thaliana plants comprising the protein-coding gene of SEQ ID NO: 42 after being foliage-sprayed with 40 g/mu compound B for 12 days are shown in FIG. 4.
# [7] = system: soybean; assay: Transgenic soybeans sprayed with compound C; assay type: in vivo; conditions: for resistance compared with the wild-type soybean: 10 g compound C sprayed
# Procedure: Engineered proteins were selected for soybean transformation and plant analysis. DNA constructs were transformed into soybeans using Agrobacterium tumifaciens and standard methods known in the art.
# The transformed TO transgenic plantlets grew in the greenhouse. TO generation transgenic plantlets were tested by spraying 10 g compound C. […] T1 generation soybean plant seeds produced by transformation of all constructs were collected, and T1 generation seedlings were tested by spraying 10 g compound C.
# [8] = system: rice (Jinjing 818); assay: Transgenic rice T0 plantlets in greenhouse sprayed with quizalofop-P-ethyl; assay type: in vivo; conditions: T0 plantlets foliage-sprayed with 5 g, 10 g/mu quizalofop-P-ethyl, 20 DAT
# Procedure: as §1, with “The” for “Then, the”, “quizalofop-P-ethyl” for “B”, “46” for “42”, “applying 0 g, 5 g, 10 g/mu compound quizalofop-P-ethyl for” for “applying”, “DAT” for “g, 40 g, 60 g, 80 g, 100 g, 120 g/mu (1 mu=1/15 ha) compound B for corresponding days (DAT)”, “12.” for “2.”
# [9] = system: maize; assay: T0 transgenic maize plantlets sprayed with 30% glyphosate compound C (25+5) ME; assay type: in vivo
# Procedure: Engineered proteins were selected for maize transformation and plant analysis. DNA constructs were transformed into maizes using Agrobacterium tumifaciens and standard methods known in the art.
# The transformed TO transgenic plantlets grew in the greenhouse. TO generation transgenic plantlets were tested by spraying with 150 g, 250 g, 400 g, 600 g, 800 g of 30% glyphosate compound C (25+5) ME.
Molecule,Conversion rate [1] [%],Kcat [2] [S^−1],Km [2] [µM],Vmax [2],drug resistance (tolerance to compound B) compared with wild-type plants [3],"drug resistance (tolerance to compound B) compared with wild-type plants ([4]; T0 plantlets foliage-sprayed with 20-120 g/mu compound B, tolerance at at least 120 g/mu)","tolerance compared with the wild types (summary) ([4]; medicated medium test and greenhouse spraying test for T0 generation, compound B)",drug resistance compared with wild-type Arabidopsis thaliana (longer roots and larger leaves) [5],drug resistance compared with wild-type plants transformed with RdpA gene [6],"drug resistance compared with the wild-type soybeans ([7]; T1 generation plantlets, 10 g, 20 g, 40 g, 80 g compound C sprayed, at least 40 g)",drug resistance (tolerance to quizalofop-P-ethyl) compared with wild-type plants [8],resistance compared with the wild-type soybean ([7]; T0 generation plantlets),resistance compared with the wild-type soybean ([7]; T1 generation seedlings),drug resistance compared with the wild-type maize ([9]; 600 g 30% glyphosate compound C (25+5) ME),phytotoxicity reaction of transgenic plantlets ([9]; 600 g of 30% glyphosate compound C (25+5) ME),phytotoxicity reaction of transgenic plantlets ([9]; 800 g of 30% glyphosate compound C (25+5) ME),phytotoxicity reaction of transgenic plantlets ([9]; concentration below 600 g of 30% glyphosate compound C (25+5) ME)
B1,96.6,0.86,81.3,99.6,exhibited better drug resistance,exhibited better drug resistance,exhibited apparent tolerance,exhibited better drug resistance,exhibited better drug resistance,exhibited better drug resistance,–,–,–,–,–,–,–
B2,97,0.15,17.5,35.2,–,–,–,exhibited better drug resistance,–,–,exhibited better drug resistance,exhibited apparent resistance,exhibited apparent resistance,better drug resistance,"the stem base was slightly enlarged, the whole plant growth was obviously inhibited, and the plant was in normal condition","the stem base was significantly enlarged, inhibition on the whole plant growth was further intensified, and the leaf color became lighter and lusterless",no apparent phytotoxicity reaction

# Source: patent US20250163449A1, “HERBICIDE-TOLERANT GENES AND METHOD FOR USING SAME” (QINGDAO KINGAGROOT CHEMICAL COMPOUND CO., LTD., priority 2022, published 2025)
